Assay results reported in PMC12441119.

B1: STK4 (residues 11–326) wild type K59R (protein)
chain: RRQLKKLDEDSLTKQPEEVFDVLEKLGEGSYGSVYKAIHKETGQIVAIRQVPVESDLQEIIKEISIMQQCDSPHVVKYYGSYFKNTDLWIVMEYCGAGSVSDIIRLRNKTLTEDEIATILQSTLKGLEYLHFMRKIHRDIKAGNILLNTEGHAKLADFGVAGQLTDTMAKRNTVIGTPFWMAPEVIQEIGYNCVADIWSLGITAIEMAEGKPPYADIHPMRAIFMIPTNPPPTFRKPELWSDNFTDFVKQCLVKSPEQRATATQLLQHPFVRSAKGVSILRDLINEAMDVKLKRQESQQREVDQDDEENSEEDEMD
B2: STK4 (residues 1–326) wild type K59R (protein)
chain: METVQLRNPPRRQLKKLDEDSLTKQPEEVFDVLEKLGEGSYGSVYKAIHKETGQIVAIRQVPVESDLQEIIKEISIMQQCDSPHVVKYYGSYFKNTDLWIVMEYCGAGSVSDIIRLRNKTLTEDEIATILQSTLKGLEYLHFMRKIHRDIKAGNILLNTEGHAKLADFGVAGQLTDTMAKRNTVIGTPFWMAPEVIQEIGYNCVADIWSLGITAIEMAEGKPPYADIHPMRAIFMIPTNPPPTFRKPELWSDNFTDFVKQCLVKSPEQRATATQLLQHPFVRSAKGVSILRDLINEAMDVKLKRQESQQREVDQDDEENSEEDEMD
B3: STK4 (residues 1–487) wild type K59R (protein)
chain: METVQLRNPPRRQLKKLDEDSLTKQPEEVFDVLEKLGEGSYGSVYKAIHKETGQIVAIRQVPVESDLQEIIKEISIMQQCDSPHVVKYYGSYFKNTDLWIVMEYCGAGSVSDIIRLRNKTLTEDEIATILQSTLKGLEYLHFMRKIHRDIKAGNILLNTEGHAKLADFGVAGQLTDTMAKRNTVIGTPFWMAPEVIQEIGYNCVADIWSLGITAIEMAEGKPPYADIHPMRAIFMIPTNPPPTFRKPELWSDNFTDFVKQCLVKSPEQRATATQLLQHPFVRSAKGVSILRDLINEAMDVKLKRQESQQREVDQDDEENSEEDEMDSGTMVRAVGDEMGTVRVASTMTDGANTMIEHDDTLPSQLGTMVINAEDEEEEGTMKRRDETMQPAKPSFLEYFEQKEKENQINSFGKSVPGPLKNSSDWKIPQDGDYEFLKSWTVEDLQKRLLALDPMMEQEIEEIRQKYQSKRQPILDAIEAKKRRQQNF

Biological target: T1, HOIP (residues 854–1072), Q96EP0
T1 chain: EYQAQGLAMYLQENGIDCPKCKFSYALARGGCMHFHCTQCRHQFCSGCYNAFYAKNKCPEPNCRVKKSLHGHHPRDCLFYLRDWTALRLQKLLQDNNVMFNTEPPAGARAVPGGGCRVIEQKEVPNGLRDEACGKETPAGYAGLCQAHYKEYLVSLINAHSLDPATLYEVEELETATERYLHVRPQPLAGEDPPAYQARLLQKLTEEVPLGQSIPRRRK
Test: ITC
Details: chain shown with the change
For B1, the Kd was 20.9 µM. B2 showed a Kd of 28.5 µM. In the case of B3, the Kd is reported as 115 µM.
